Results as given in the supplement of paper PMC10567573.

B1: YPEL3 (parent)
chain: SKPKTFQAYLDDCHRRYSCAHCRA
B2: SNX3 (parent)
chain: FLRQLPFRGDDGIFDDNFIEERKQ

Variants of: B1
Assay: protein stability index of a GFP-peptide fusion (GPS, HEK-293T) (PSI 1-6); higher = more stable
Conditions: c terminus: a fixed tail appended
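Further: lentivirally expressed fusions sorted by FACS into six bins by GFP to DsRed ratio, PSI derived from sequencing read proportions per bin multiplied by bin number.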

Variant	protein stability index
R23E	2.09
R23A	3.07
R23F	2.61
R23I	3.07
R23H	2.59
R23D	2.18
R23V	3.34
R23Q	1.86
R23K	2.03
R23C	1.24
R23W	2.08
C19P	2.85
C19F	1.53
C19N	3.42
C19Q	2.53
C19G	2.68
C19A	2.51
C19Y	2.44
C19S	2.87
C19T	2.44
C19M	1.63
C19H	2.96
C19R	2.04
F6R	3.21

Variant	protein stability index
F6M	2.94
F6V	2.81
F6E	3.4
F6I	2.17
F6C	2.84
F6L	2.27
F6A	2.95
F6D	3.54
F6N	3.15
F6K	3.23
F6G	3.57
F6Y	2.2
F6H	2.71
D12N	2.12
D12L	2.34
D12E	2.36
D12Q	2.01
D12T	2.35
D12P	2.57
D12C	2.74
D12K	2.9
D12S	2
D12M	2.69
D12H	2.35

Variant	protein stability index
D12I	2.22
D12R	2.4
C13F	2.1
C13T	2.01
C13Y	2.44
C13M	2.79
C13N	2.27
C13S	2.25
C13V	2.54
C13H	1.75
C13G	2.07
C13D	1.99
R15N	2.79
R15L	2.01
R15I	2.25
R15S	1.61
R15T	2.48
R15C	2.72
R15K	2.15
R15W	2.2
R15V	1.57
R15Y	1.56
R15M	1.68
H14Q	2.23

Variant	protein stability index
H14V	2.15
H14A	2.03
H14N	2.19
H14M	2.34
H14T	1.8
H14K	2.78
H14E	1.56
H14W	3.12
H14D	1.67
H14Y	1.56
H14C	2.28
H14L	1.82
H14I	2.05
D11R	1.9
D11C	3.36
D11P	2.54
D11K	2.83
D11V	1.75
D11E	2.59
D11H	2.37
D11W	1.5
D11F	3.03
D11A	1.89
C22T	2.73

Variant	protein stability index
C22M	1.98
C22S	1.86
C22E	2.34
C22W	1.77
C22H	1.82
C22V	2.64
C22D	2.94
C22Q	3.22
C22G	2.75
C22Y	2.17
Y17L	2
Y17T	2.37
Y17C	3.26
Y17F	3.01
Y17I	2.13
Y17H	2.07
Y17E	2.66
Y17A	1.99
Y17R	2.79
Y17V	1.39
Y17K	3.43
Y17M	1.64
A20E	1.46
A20S	1.46

Variant	protein stability index
A20Q	1.71
A20D	1.1
A20K	2.95
A20V	2.02
A20H	2.04
A20T	2.29
A20I	1.89
A20R	1.72
A20W	3.14
H21P	1.9
H21T	2.34
H21R	3.32
H21K	2.37
H21C	1.83
H21V	1.79
H21I	2.52
H21Y	1.48
H21D	2.18
H21S	2.19
K4H	2.59
K4W	1.59
K4Q	1.8
K4Y	2.04
K4I	1.6

Variant	protein stability index
K4R	1.86
K4A	2.47
K4G	2.71
K4E	2.09
K4V	2.57
K4M	2.28
S1W	1.66
S1G	2.07
S1F	1.67
S1C	2.29
S1V	1.38
S1L	3.27
S1N	2.04
S1I	2.81
S1Q	2.08
S1E	1.52
Q7C	1.96
Q7P	2.8
Q7D	2.68
Q7G	2.22
Q7R	2.02
Q7S	1.89
Q7N	2.04
Q7M	1.8

Variant	protein stability index
Q7K	2.65
Q7V	2.18
Q7H	2.2
Q7W	1.73
K2D	2.89
K2E	1.63
K2I	1.63
K2M	1.7
K2V	2.22
K2Q	2.31
Y9R	1.94
Y9L	1.96
Y9S	1.4
Y9Q	2.45
Y9T	1.52
Y9P	3.08
Y9N	2.17
Y9E	3
Y9C	2.33
Y9K	1.93
Y9F	2.67
Y9D	2.38
Y9W	1.93
Y9H	1.88

Variant	protein stability index
T5I	2.75
T5L	2.37
T5R	2.85
T5M	2.56
T5C	2.33
T5G	2.11
T5Q	2.55
T5A	2.46
T5K	2.25
T5P	2.43
T5F	1.84
S18K	2.01
S18N	2.06
S18D	1.5
S18M	2.73
S18I	2.37
S18T	2.37
S18F	1.91
S18L	2.14
S18Q	1.86
S18P	2.15
L10N	2.62
L10M	1.75
L10R	2.62

Variant	protein stability index
L10F	1.99
L10H	3.32
L10T	2.14
L10I	2.41
L10V	1.57
L10D	2.53
L10A	2.54
L10Y	1.97
L10W	2.05
L10G	2.79
L10C	3.6
R16I	1.55
R16D	2.45
R16T	2.46
R16A	1.76
R16H	2.3
R16K	1.73
R16N	1.45
R16Q	2.5
R16V	2.34
R16C	2.4
R16Y	1.83
R16P	1.94
R16G	1.33

Variant	protein stability index
R16L	2.33
R16S	1.59
P3T	1.92
P3S	1.82
P3C	2.6
P3K	2.29
P3A	1.66
P3M	3.01
P3F	3.23
P3E	2.31
P3V	2
P3N	2.26
P3Q	1.97
P3Y	1.72
P3D	2.11
P3G	2.13
A24H	1.85
A24R	1.71
A24M	2.07
A24T	1.54
A24V	1.84
A24D	1.73
A24C	1.83
A24S	1.54

Variant	protein stability index
A24K	3.42
A24L	1.87
A24N	2
A24P	2.24
A8F	1.78
A8H	2.51
A8N	2.49
A8M	1.66
A8L	2.4
A8P	2.62
A8T	2.1
A8G	1.91
A8Q	2.5
A8C	2.32
A8R	1.88
A8K	2.31
A8Y	2.02
A8E	1.92
A8V	2.23

Variants of: B2
Assay: as above
Conditions: c terminus: a fixed tail appended

Variant	protein stability index
K23F	2.9
K23N	3.92
K23Y	2.99
K23P	3.36
K23A	3.45
K23M	3.26
K23C	3.36
K23D	4.48
K23W	2.75
K23L	2.49
K23R	2.95
K23S	3.16
K23V	2.49
K23Q	3.21
K23H	3.38
K23I	2.47
K23T	3.52
Q24Y	2.93
Q24I	3.02
Q24T	2.84
Q24D	3.62
Q24W	2.1
Q24C	2.57
Q24P	2.6
Q24V	2.61
Q24S	2.75

Variant	protein stability index
Q24M	2.56
Q24K	4.36
Q24G	3.29
Q24L	2.79
Q24F	2.96
Q24H	2.91
Q24A	3.3
Q24R	3.48
Q24E	3.44
Q24N	4.03
R22P	3
R22I	2.78
R22F	3.44
R22N	3.78
R22W	4.24
R22K	3.81
R22Q	3.27
R22T	3.77
R22M	3.45
R22Y	2.31
R22H	3.19
R22L	2.87
R22G	3.66
R22V	3.12
R22S	2.81
